According to PMC3472187, “Crystal structure of HutZ, a heme storage protein from Vibrio cholerae: A structural mismatch observed in the region of high sequence conservation” (BMC Structural Biology, 2012):

Biological target: the molecule itself
Assay: SEC

B1: HutZ (residues 13-150, His tagged) (domain or fragment)
chain: RLEPEIKEFRQERKTLQLATVDAQGRPNVSYAPFVQNQEGYFVLISHIARHARNLEVNPQVSIMMIEDETEAKQLFARKRLTFDAVASMVERDSELWCQVIAQMGERFGEIIDGLSQLQDFMLFRLQPEQGLFVKGFG
notes: also called truncated HutZ; source: E. coli BL21 (DE3), purified (Ni-chelating Sepharose, Source 15Q, Superdex-200)
B1 was tested, and the “stoichiometry N” value was 2.
